Laboratory results from publication PMC7116205.

Chain of VAMP2 (1-116) (mouse) (P63044 other isoform, or with tags, fused parts or gaps): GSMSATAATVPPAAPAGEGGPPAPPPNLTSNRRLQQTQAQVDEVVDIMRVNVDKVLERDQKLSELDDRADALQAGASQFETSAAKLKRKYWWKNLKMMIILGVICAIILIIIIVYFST
Chain of syntaxin 1A 1-288 (rat) (P32851 whole entry T251I): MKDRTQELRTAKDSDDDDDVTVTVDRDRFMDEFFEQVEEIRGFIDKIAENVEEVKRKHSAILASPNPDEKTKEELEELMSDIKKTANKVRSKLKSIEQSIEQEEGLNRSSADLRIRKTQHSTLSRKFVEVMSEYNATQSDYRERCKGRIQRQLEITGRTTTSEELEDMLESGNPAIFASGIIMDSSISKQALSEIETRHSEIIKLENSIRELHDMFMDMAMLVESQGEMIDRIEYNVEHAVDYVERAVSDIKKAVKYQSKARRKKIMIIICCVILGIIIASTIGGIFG

CpxII A40BPA (natural protein)
share of the cross-links that stay SDS sensitive (not in SDS-resistant cis v/t-SNARE complexes) after Ca2+ (VAMP2 (1-116) (mouse)): 74%

CpxII H52BPA (natural protein)
share of the cross-links that are SDS sensitive (not in SDS-resistant cis v/t-SNARE complexes) after Ca2+, unboiled samples (syntaxin 1A 1-288 (rat)): 14%
